The text below walks through data of article PMC6044470.

As usually defined, the stoichiometry N is a count of units in the complex or per binding partner.

For this assay, the target named is Chaetomium thermophilum Cdc48 (Chaetomium thermophilum). As to the kind of experiment: cryo-EM structure.

With Chaetomium thermophilum Cdc48 (enzyme), the stoichiometry N came out at 6.

Substance “Ufd1/Npl4 heterodimer (UN) from Chaetomium thermophilum (complex)” displayed a stoichiometry N of 1.
